From US20040248206A1 (FIBROGEN, published 2004)
Blank lines part the entries; values can stand above or below the binder they belong to.

Assays:
[1] = target: T1, rat CTGF (rat, UniProt Q9R1E9 25-347); assay: Scatchard competitive binding; mAb 10 ng/ml; labeled human CTGF vs unlabeled rat CTGF
T1 chain: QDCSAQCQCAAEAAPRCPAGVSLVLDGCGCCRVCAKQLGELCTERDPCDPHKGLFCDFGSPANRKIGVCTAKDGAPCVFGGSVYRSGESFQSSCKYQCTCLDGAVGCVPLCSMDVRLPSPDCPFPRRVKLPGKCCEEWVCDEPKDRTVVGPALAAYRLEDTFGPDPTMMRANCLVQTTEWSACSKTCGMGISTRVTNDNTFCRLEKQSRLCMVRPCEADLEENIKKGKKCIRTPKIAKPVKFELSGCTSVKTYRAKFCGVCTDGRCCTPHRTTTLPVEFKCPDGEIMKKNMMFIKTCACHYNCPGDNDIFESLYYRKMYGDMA

[2] = target: T1, rat CTGF; assay: Scatchard competitive binding; mAb 5 ng/ml; labeled human CTGF vs unlabeled rat CTGF
[3] = target: T2, recombinant human connective tissue growth factor (UniProt P29279 27-349); assay: Scatchard competitive binding; mAb 10 ng/ml
T2 chain: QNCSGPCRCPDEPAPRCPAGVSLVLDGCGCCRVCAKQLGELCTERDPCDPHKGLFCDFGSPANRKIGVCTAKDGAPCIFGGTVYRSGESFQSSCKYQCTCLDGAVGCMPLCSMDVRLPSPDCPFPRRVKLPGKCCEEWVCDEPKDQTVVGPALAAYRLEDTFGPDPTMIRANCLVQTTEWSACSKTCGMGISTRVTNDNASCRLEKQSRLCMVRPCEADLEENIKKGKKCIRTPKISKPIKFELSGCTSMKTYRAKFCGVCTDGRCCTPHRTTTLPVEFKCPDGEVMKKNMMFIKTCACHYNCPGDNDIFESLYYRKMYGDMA

[4] = target: T2, recombinant human connective tissue …; assay: Scatchard competitive binding; mAb 5 ng/ml
[5] = target: T3, recombinant human connective tissue growth factor (human, UniProt P29279 27-349); assay: RIA, immobilized antibody, [125I]rhCTGF with unlabeled rhCTGF, Scatchard
T3 construct: Radio-iodinated in the RIA; also called rhCTGF; CTGF
T3 sequence: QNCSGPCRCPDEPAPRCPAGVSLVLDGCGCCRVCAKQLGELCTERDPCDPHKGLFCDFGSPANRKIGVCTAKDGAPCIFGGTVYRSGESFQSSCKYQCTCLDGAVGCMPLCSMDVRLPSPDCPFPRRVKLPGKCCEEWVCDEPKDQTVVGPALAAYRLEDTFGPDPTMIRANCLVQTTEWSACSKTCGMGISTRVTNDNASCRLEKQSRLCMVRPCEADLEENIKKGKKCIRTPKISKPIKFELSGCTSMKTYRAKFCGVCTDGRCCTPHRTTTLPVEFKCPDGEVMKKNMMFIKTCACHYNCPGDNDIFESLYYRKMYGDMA
Protocol: The affinity of each antibody population identified by epitope mapping was measured using RIA, wherein whole rhCTGF was radio-iodinated and added to wells containing immobilized monoclonal antibody, as follows. Recombinant human CTGF was radiolabeled with ¹²⁵I using the chloramine-T method. (See, Greenwood et al. (1963) Biochem J 89:114-123.) Typically, at least 60% of the ¹²⁵I was incorporated and the specific activity of the labeled CTGF was at least 1×10⁵ cpm/ng, although labeled CTGF of lower specific activity can be used in the radioimmunoassay. Goat anti-human IgG, γFc-specific capture antibody (Jackson ImmunoResearch) in Ca²⁺- and Mg²⁺-free DPBS (Mediatech, Herrndon Va.) was added to the wells of a MAXISORP BREAKAPART microtiter plate (Nalge Nunc International, Rochester N.Y.) and allowed to bind overnight at 4° C. The wells were then blocked with 1% BSA in Ca²⁺- and Mg²⁺-free DPBS for at least 4 hours at 4° C. […] Wells were then washed four times with 0.1% Tween 20 in Ca²⁺- and Mg²⁺-free PBS (Mediatech), and the wells of the microtiter plate were separated and counted in a gamma counter.
Affinity was estimated graphically by the method of Scatchard (1948, Ann NY Acad Sci 51:660-72). The total concentration of labeled CTGF applied to the plate was calculated as […]

[6] = target: T4, P40341; assay: ELISA with synthetic peptide
T4 construct: Same as P40340 with Ser in place of the Cys
T4 peptide: RLPSPDSPFPRRV

[7] = target: T5, 5MER; assay: ELISA with synthetic peptide
T5 construct: The N-terminal C is probably the added, non-native cysteine (underlining lost in the text)
T5 peptide: CRVKL

[8] = target: T6, PC5445 (human); assay: ELISA with synthetic peptide
T6 peptide: RLPSPDSPFPRRVKLPGK

[9] = target: T7, 10MER; assay: ELISA with synthetic peptide
T7 peptide: SPDSPFPRRV

[10] = target: T8, P40340 (human); assay: ELISA with synthetic peptide
T8 peptide: RLPSPDCPFPRRV

[11] = target: T9, 8MER; assay: ELISA with synthetic peptide
T9 peptide: DSPFPRRV

[12] = target: T10, P40342 (human); assay: ELISA with synthetic peptide
T10 peptide: LPSPDCPFPRRVKL

[13] = target: T11, 7MER; assay: ELISA with synthetic peptide
T11 construct: The N-terminal C is probably the added, non-native cysteine (underlining lost in the text)
T11 peptide: CPRRVKL

[14] = target: T12, 9MER; assay: ELISA with synthetic peptide
T12 peptide: PDSPFPRRV

[15] = target: T13, 6MER; assay: ELISA with synthetic peptide
T13 construct: The N-terminal C is probably the added, non-native cysteine (underlining lost in the text)
T13 peptide: CRRVKL

[16] = target: T14, PC5444; assay: ELISA with synthetic peptide
T14 construct: Synthetic peptide of the exon 3 region with Ser where native CTGF has Cys
T14 peptide: PLSSMDVRLPSPDS

[17] = target: T15, 9MER2; assay: ELISA with synthetic peptide
T15 peptide: CPFPRRVKL

[18] = target: T16, PEP5 (human); assay: ELISA with synthetic peptide
T16 peptide: RLPSPDCPFPRRVKL

[19] = target: T17, 8MER2; assay: ELISA with synthetic peptide
T17 peptide: CFPRRVKL

[20] = target: T18, 10MER2; assay: ELISA with synthetic peptide
T18 peptide: SPDCPFPRRV

[21] = target: T19, rat CTGF (rat, UniProt Q9R1E9 25-347); assay: RIA, unlabeled rat CTGF competing with [125I]rhCTGF for immobilized antibody
T19 construct: also called unlabeled rat CTGF; recombinant rat CTGF
T19 sequence (looked up): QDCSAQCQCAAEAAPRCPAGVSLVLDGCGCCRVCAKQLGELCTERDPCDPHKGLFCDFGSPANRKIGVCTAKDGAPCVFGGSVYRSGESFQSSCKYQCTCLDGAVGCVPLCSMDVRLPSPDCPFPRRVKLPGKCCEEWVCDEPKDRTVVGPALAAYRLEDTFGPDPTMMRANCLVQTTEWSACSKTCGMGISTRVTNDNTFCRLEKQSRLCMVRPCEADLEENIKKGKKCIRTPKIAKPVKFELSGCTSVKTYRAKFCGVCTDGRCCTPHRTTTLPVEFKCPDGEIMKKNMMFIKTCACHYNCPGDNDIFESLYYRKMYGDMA
Protocol: (§1) The affinity of each antibody population identified by epitope mapping was measured using RIA, wherein whole rhCTGF was radio-iodinated and added to wells containing immobilized monoclonal antibody, as follows. Recombinant human CTGF was radiolabeled with ¹²⁵I using the chloramine-T method. (See, Greenwood et al. (1963) Biochem J 89:114-123.) Typically, at least 60% of the ¹²⁵I was incorporated and the specific activity of the labeled CTGF was at least 1×10⁵ cpm/ng, although labeled CTGF of lower specific activity can be used in the radioimmunoassay. Goat anti-human IgG, γFc-specific capture antibody (Jackson ImmunoResearch) in Ca²⁺- and Mg²⁺-free DPBS (Mediatech, Herrndon Va.) was added to the wells of a MAXISORP BREAKAPART microtiter plate (Nalge Nunc International, Rochester N.Y.) and allowed to bind overnight at 4° C. The wells were then blocked with 1% BSA in Ca²⁺- and Mg²⁺-free DPBS for at least 4 hours at 4° C. The blocking solution was removed and 100 μl of test antibody at 2-50 ng/ml in Ca²⁺- and Mg²⁺-free DPBS was added and allowed to bind overnight at 4° C. […] Wells were then washed four times with 0.1% Tween 20 in Ca²⁺- and Mg²⁺-free PBS (Mediatech), and the wells of the microtiter plate were separated and counted in a gamma counter. […]

[22] = target: T2, recombinant human connective tissue …; assay: Scatchard competitive binding; mAb 25 ng/ml
[23] = target: T2, recombinant human connective tissue …; assay: Scatchard competitive binding; mAb 2.5 ng/ml
[24] = target: T3, recombinant human connective tissue …; assay: RIA as in Example 4.2
Protocol: as §1

[25] = target: T3, recombinant human connective tissue …; assay: not stated (assays as described in Example 4)

- Kd [1]: 0.339 nM
- Kd [2]: 0.317 nM
- Kd [3]: 0.271 nM
- Kd [4]: 0.239 nM
- Kd [5]: < 1 nM
- binding result [6]: no binding
- binding result [7]: no binding
- binding result [8]: binds
- binding result [9]: no binding
- binding result [10]: binds
- binding result [11]: no binding
- binding result [12]: binds
- binding result [13]: no binding
- binding result [14]: no binding
- binding result [15]: no binding
- binding result [16]: no binding
- binding result [17]: no binding
- binding result [18]: binds
- binding result [19]: no binding
- binding result [20]: no binding
- binding result [21]: binds
- Kd [22]: 0.384 nM
- Kd [23]: 0.215 nM
B1: mAb1 (antibody, V domains shown)
VH: EGQLVQSGGGLVHPGGSLRLSCAGSGFTFSSYGMHWVRQAPGKGLEWVSGIGTGGGTYSTDSVKGRFTISRDNAKNSLYLQMNSLRAEDMAVYYCARGDYYGSGSFFDCWGQGTLVTVSS
VL: DIQMTQSPSSLSASVGDRVTITCRASQGISSWLAWYQQKPEKAPKSLIYAASSLQSGVPSRFSGSGSGTDFTLTISSLQPEDFATYYCQQYNSYPPTFGQGTKLEIKR
notes: also called exemplary antibody of the invention; antibody of hybridoma cell line 8C12-F10

- binding result [24]: binds
B2: deglycosylated mAb1 (antibody, V domains shown)
VH: EGQLVQSGGGLVHPGGSLRLSCAGSGFTFSSYGMHWVRQAPGKGLEWVSGIGTGGGTYSTDSVKGRFTISRDNAKNSLYLQMNSLRAEDMAVYYCARGDYYGSGSFFDCWGQGTLVTVSS
VL: DIQMTQSPSSLSASVGDRVTITCRASQGISSWLAWYQQKPEKAPKSLIYAASSLQSGVPSRFSGSGSGTDFTLTISSLQPEDFATYYCQQYNSYPPTFGQGTKLEIKR
modifications: N-linked oligosaccharides removed with peptide N-glycosidase F (PNGase F)
notes: also called deglycosylated antibody; PNGase F treated mAb1

- Kd [25]: 0.8 nM
B3: CLN1 (antibody, V domains shown)
VH: EGQLVQSGGGLVHPGGSLRLSCAGSGFTFSSYGMHWVRQAPGKGLEWVSGIGTGGGTYSTDSVKGRFTISRDNAKNSLYLQMNSLRAEDMAVYYCARGDYYGSGSFFDCWGQGTLVTVSS
VL: DIQMTQSPSSLSASVGDRVTITCRASQGISSWLAWYQQKPEKAPKSLIYAASSLQSGVPSRFSGSGSGTDFTLTISSLQPEDFATYYCQQYNSYPPTFGQGTKLEIKR
notes: also called recombinant antibody from COS7 cells co-transfected with plasmids 44a1 and 42b2
